Results: article PMC7092865
Where two headings read alike, the source gives them in different places.

Columns and labels:
SUDc5b [1] = biological target: T1, SUDc5b (SARS coronavirus TOR2, UniProt P0C6U8 1207-1380); experiment: EMSA
SUD full-length (Nsp3c) [2] = biological target: T2, SUD full-length (Nsp3c) (SARS coronavirus TOR2, UniProt P0C6U8 1167-1544); experiment: EMSA
SUD full-length (Nsp3c) [3] = biological target: T2, SUD full-length (Nsp3c); experiment: EMSA; remark: listed apart in the source
SUDc5b [4] = biological target: T1, SUDc5b; experiment: EMSA; remark: listed apart in the source
SUDc5b [5] = biological target: T1, SUDc5b; experiment: zone-interference gel electrophoresis

GGGUGACACUAAAAAAAAAAAAAACUCUCCUCUCGGUGCUCCUUCACUC (ssRNA) [bbc3-A14 RNA]: no binding (SUDc5b [1]); no binding (SUD full-length (Nsp3c) [2]).

GGGUGACACUGGGGGGGGGGGGGGCUCUCCUCUCGGUGCUCCUUCACUC (ssRNA) [bbc3-G14 RNA]: binds (SUD full-length (Nsp3c) [3]); binds (SUDc5b [4]).

CATCTATGAGGGGGGTTTACTATC (ssDNA) [2(+)] showed a Kd (SUDc5b [5]) of roughly 1 µM.

ATGTAATGCGGGGGGCACTACGTT (ssDNA) [3(-)] was tested, and the Kd (SUDc5b [5]) was roughly 1 µM.
